Values quoted from earlier work, collected in PMC2586657.

Target: alpha-factor (Saccharomyces cerevisiae) (UniProt P01149)

- Kd: 5 nM
Substance: alpha-factor receptor (from UniProt D6VTK4)
